Eleven molecules from patent US20220056124A1 (University of Texas, published 2022) can be followed below.

Substitutions are numbered along the chain they refer to.

For orientation: EC50 means the concentration giving half of the maximal effect. A word on the EC50 (read off the curve): it is the concentration giving half of the maximal effect. What is called Kd is the free concentration of one partner at which half of the binding sites on the other are occupied at equilibrium, for simple one-to-one binding. In general, koff refers to a measure of how fast the partners let go of each other. A word on the kon: it is a measure of how fast the partners come together.

In assay [1] the target is T1, recombinant human endotrophin (77 amino acids at the carboxy-terminal of the COL6α3 chain, HEK293-expressed, … (human, UniProt P12111 3101-3177)).
T1 construct: the His-tag was removed by enterokinase, leaving the 77 amino acid endotrophin free of tags; also called ETP; recombinant endotrophin protein
The experiment in a line: ELISA titration on plate-coated recombinant endotrophin, 4-parameter fit. On the procedure:
(§1) Antibody-antigen ELISA Binding Assay. Corning 96-well EIA/RIA plates were coated overnight at 4° C. with HEK293 expressed recombinant endotrophin (1 μg/mL) and blocked for 2 hr at 37° C. with 5% non-fat milk. After washing with PBST for 3 times, 100 μL of serial diluted anti-endotrophin antibodies were added and incubated for 45 min at 37° C. Subsequently, the plates were washed with PBST and incubated for 30 min with anti-rabbit or anti-human F(ab′)2 HRP-conjugated antibody (Jackson ImmunoResearch Laboratories). The immunoreactions were developed with TMB substrates (Sigma) and stopped by the addition of 2 M sulfuric acid before reading the plate at 450 nm.
(§2) Binding of endotrophin by monoclonal antibodies was first screened by ELISA using supernatants collected from the B cell cultures (FIG. 10). ELISA titration was used to determine the binding affinity of a panel of monoclonal antibodies to endotrophin antigen (FIG. 11). Binding constants (EC₅₀) of a panel of monoclonal antibodies were estimated using four-parameter curve fitting with Prism GraphPad (Table 3).
For orientation: ELISA stands for enzyme-linked immunosorbent assay.

For assay [2], the target named is T1, recombinant human endotrophin (77 amino …). The experiment in a line: ELISA titration, plate coated with recombinant endotrophin, serially diluted antibody, HRP secondary antibody, OD450. On the procedure:
as §1, §2

Assay [3] shares this target. Kind of assay: BLI (Octet RED96), antibody on protein A biosensors, endotrophin 0.1-200 nM, 1:1 fit. The procedure:
Following a short baseline in kinetics buffer, the loaded biosensors were exposed to a series of recombinant endotrophin protein at 0.1-200 nM and background subtraction was used to correct for sensor drifting. All experiments were performed with shaking at 1,000 rpm. Background wavelength shifts were measured from reference biosensors that were loaded only with antibody. Kinetic sensorgrams for each antibody are shown in FIGS. 12A&B. ForteBio's data analysis software was used to fit the data to a 1:1 binding model to extract an association rate and dissociation rate.
For orientation: BLI is a label-free optical method that tracks binding on a fibre tip over time.

Assay [4] shares this target. Kind of assay: BLI (Octet RED96).

T1 sequence (P12111 3101-3177 limits assumed): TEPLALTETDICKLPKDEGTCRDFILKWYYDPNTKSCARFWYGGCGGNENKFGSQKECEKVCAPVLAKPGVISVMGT

B1: ETP-mAb1 (antibody, V domains shown)
VH: QSVKESGGDLVKPGASLTLTCTASGIDFSAGYYMCWVRQAPGKGLELIACIYAGRSLNTFYASWAKGRFTISRASSTTVTLAMTSLTAADTATYFCARDGASSGYYFKLWGPGTLVTISS
VL: ELDMTQTPASVEVAVGGTVTIKCQASQSIGSNLAWYQQKPGQRPNVLIYDASNLASGVSSRFKGSGSGTQFTLTISGGECADAATYYCQQGYSDNYLDNAFGGGTEVVVK
notes: Rabbit monoclonal
Regarding B1, the EC50 in assay [1] was 0.023 µg/mL. For the same molecule, the “EC50 (read off the curve)” value in assay [2] is approximately 0.02 µg/mL.

B2: ETP-mAb4 (antibody, V domains shown)
VH: SSRVKESGGDLVKPGASLTLTCKASGFSFSSGYYICWVRQAPGKGLEWIACIYGGNNNPYYANWVNGRFTTSKTSSTTVTLQMTNLTGADTATYFCARKDINIGGAYELWGPGTLVTISS
VL: ELVMTQTPASVSEPVGGTVTINCQASQSISSSYLSWYQQKPGQPPKLLIYKASTLASGVPSRFKGSGSGTQFSLTISDLECADAATYYCQYSDWANSYGNAFGGGTEVVVK
notes: Rabbit monoclonal; also called parental rabbit ETPmAb4
Take B2: the EC50 in assay [1] worked out at 0.054 µg/mL. Further, in assay [3], the Kd was found to be 1.75 nM, the koff worked out at 0.000249 s⁻¹ and the kon came out at 142000 M⁻¹ s⁻¹. The “EC50 (read off the curve)” value in assay [2] was approximately 0.06 µg/mL. In addition, the dissociation constant (Kd) in assay [4] is 1.62 nM.

B3: ETP-mAb10 (antibody, V domains shown)
VH: QSLEESGGGLVQPEGSLTLTCTASGFSFSRGDYMCWVRQAPGKGLEWIGWIDVGRDNDSYYATWAKGRFSISKTSSTTVTLQMTSLTVADTATYFCARDLGFDTNLWGPGTLVTVSS
VL: ELDMTQTPASVSAAVGGTVTINCQASQNINSWLSWYQQKPGQPPKLLIYQASKLASGVPSRLKGSGSGTQFSLTISDLECADGATYYCQSYDYRSSGNGGNVFGGGTEVEIK
notes: Rabbit monoclonal
Regarding B3, in assay [1], the EC50 came to 0.142 µg/mL. Besides, the “EC50 (read off the curve)” value in assay [2] was approximately 0.1 µg/mL.

B4: ETP-mAb72 (antibody, V domains shown)
VH: B3 VH with M34V, R55S, D56V, N57I, D58E, S70T
VL: ELVMTQTPASVEAAVGGTVTINCQASESISIYLNWYQQKPGQPPKLLIYQASKLASGVPSRFKGSGSGTEFTLTISDLECADAATYYCQSHDYRIGRSDCNVFGGGTNVEIK
notes: Rabbit monoclonal
For the molecule B4, in assay [1], the EC50 was determined as 0.306 µg/mL. Also, in assay [2], the “EC50 (read off the curve)” value was approximately 0.3 µg/mL.

B5: ETP-mAb2 (antibody, V domains shown)
VH: EQSLEESEGGLVQPEGSLTLTCTASGFSFSRSDYMCWVRQAPGKGLEWIGWIDPGYSDTYYASWAQGRTTISKASSTTVTLQMTSLTVADTATYFCARDLGFDSNLWGPGTLVTISS
VL: ELDLTQTPASVSEPVGGTVTIKCQASQSINSYLSWYQQKPGQPPKLLIYQASKLASGVPSRFKGSGSGTQFTLTISDLECADAATYYCQSYDYRISGSDGNVFGGGTNVEIK
notes: Rabbit monoclonal
With B5, the EC50 in assay [1] came to 0.1 µg/mL. Also, the 50% effective concentration (EC50 (read off the curve)) in assay [2] was approximately 0.1 µg/mL.

B6: ETP-mAb6 (antibody, V domains shown)
VH: QSVKESEGGLVQPEGSLTLTCTASGFSFSNSDYMCWVRQAPGKGLEWIGWIDLVGNTNSYYASWAKGRFTISKTSSTTVALQMTSLTVADTATYFCARDLGFDTNLWGPGTLVTVSS
VL: ELDLTQTPASVSAAVGGTVTINCQASQNINSWLSWYQQKPGQRPKLLIYQASKLPSGVPSRFKGSGSGTQFTLTISDLECADAATYYCQSHDYRTTGSYGNVFGGGTEVEIK
notes: Rabbit monoclonal
For B6, the EC50 in assay [1] was determined as 0.053 µg/mL. Further, in assay [2], the “EC50 (read off the curve)” value is approximately 0.06 µg/mL.

B7: ETP-mAb4.1 (humanized ETP-hMab4) (antibody, human IgG1, V domains shown)
VH: EVQLLESGGGLVQPGGSLRLSCAASGFSFSSGYYICWVRQAPGKGLEWIACIYGGNNNPYYANWVNGRFTISRDNSKNTLYLQMNSLRAEDTAVYYCARKDINIGGAYELWGQGTLVTVSS
VL: DIQMTQSPSSLSASVGDRVTITCQASQSISSSYLSWYQQKPGKAPKLLIYKASTLASGVPSRFSGSGSGTDFTLTISSLQPEDFATYYCQYSDWANSYGNAFGGGTKVEIK
notes: Humanized; tied by the number 4.1; also called ENT-hMab4.1
Take B7: in assay [3], the Kd was 2.03 nM, the koff was 0.000235 s⁻¹ and the kon was determined as 116000 M⁻¹ s⁻¹.

B8: ETP-mAb4.2 (humanized ETP-hMab4) (antibody, human IgG1, V domains shown)
VH: B7 VH with N57S
VL: B7 VL
notes: also called ENT-hMab4.2
For the molecule B8, in assay [3], the dissociation constant Kd amounted to 2.48 nM, the koff was determined as 0.000305 s⁻¹ and the kon turned out to be 123000 M⁻¹ s⁻¹.

B9: ETP-mAb4.5 (humanized ETP-hMab4) (antibody, human IgG1, V domains shown)
VH: B7 VH with S28T, N57S
VL: B7 VL
notes: also called ENT-hMab4.5
As to B9, in assay [3], the Kd stood at 1.92 nM, the koff came to 0.000223 s⁻¹ and the kon worked out at 116000 M⁻¹ s⁻¹.

B10: ETP-mAb4.4 (humanized ETP-hMab4) (antibody, human IgG1, V domains shown)
VH: B7 VH with I71T
VL: B7 VL
notes: also called ENT-hMab4.4
B10: in assay [3], the Kd is 2.53 nM, the koff amounted to 0.000328 s⁻¹ and the on-rate constant (kon) worked out at 130000 M⁻¹ s⁻¹.

B11: ETP-mAb11 (antibody, V domains shown)
VH: QSVKESEGGLVQPEGSLTLTCTASGFSFSSSYYMCWVRQAPGKGLEWIGCIYLGNNENTAYTSWAKGRFTISKTSSTTVTLQMTSLTAADTTTYFCARDTSGGSDYYFGLWGPGTLVTISS
VL: ELDLTQTPASVEVAVGGTVTIKCQASHRIKTYLAWYQQKPGQPPKLLIYGASTLASGVPSRFKGSGSGTQFTLTISGVECADAATYYCQQGYSDGNVDNVFGGGTEVEIK
notes: Rabbit monoclonal
For B11, the EC50 in assay [1] is 0.359 µg/mL. Moreover, in assay [2], the “EC50 (read off the curve)” value is approximately 0.4 µg/mL.
